From paper PMC10147376

Target: Flotillin A (FloA) tagged with hexa-histidine (floA-6xHis) (S. aureus Newman)
Test: pull-down; Ni-NTA (IMAC) affinity chromatography of S. aureus Newman membranes solubilised in 50 mM Tris HCl pH 8, 250 mM NaCl, 1% DDM, 4°C; FloA-His held, IsdF-3xFLAG in the 50 mM imidazole eluate detected by anti-FLAG blot; control strain with untagged FloA WT set to 1; called co-immunoprecipitation by the paper

Flotillin A (FloA) tagged with hexa-histidine (floA-6xHis) (S. aureus Newman), sequence (A6QHB6 whole entry): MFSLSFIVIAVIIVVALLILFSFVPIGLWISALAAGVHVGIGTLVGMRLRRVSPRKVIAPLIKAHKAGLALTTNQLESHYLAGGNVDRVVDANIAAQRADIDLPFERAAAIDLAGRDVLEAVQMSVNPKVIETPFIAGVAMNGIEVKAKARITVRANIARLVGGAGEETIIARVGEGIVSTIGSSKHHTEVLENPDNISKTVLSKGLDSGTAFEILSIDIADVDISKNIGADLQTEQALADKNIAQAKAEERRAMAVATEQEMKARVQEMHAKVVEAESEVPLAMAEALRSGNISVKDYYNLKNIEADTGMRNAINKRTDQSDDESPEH

In the case of “IsdF with a triple FLAG tag (pRB474:isdF-3xFLAG) (from UniProt Q2FHU7 1-322) (natural protein)”, the fold IsdF-3xFLAG signal in the Ni-NTA eluate against the strain with untagged FloA WT (set to 1) is reported as 3 fold.
